From PMC5750214 come the findings set out here.

Assay [1] addresses mouse aortic AT1a receptor (mouse (endogenous in aorta)) (UniProt P29754). Description: radioligand binding; saturation: [125I]-Ang II on the aortic membrane fraction of WT mice with HHcy (fed Hcy); non-specific binding subtracted.
Assay [2] shares this target. Description: radioligand binding; saturation: [125I]-Ang II on the aortic membrane fraction of WT control mice; non-specific binding subtracted.

Sequence of mouse aortic AT1a receptor (mouse (endogenous in aorta)) (P29754 whole entry): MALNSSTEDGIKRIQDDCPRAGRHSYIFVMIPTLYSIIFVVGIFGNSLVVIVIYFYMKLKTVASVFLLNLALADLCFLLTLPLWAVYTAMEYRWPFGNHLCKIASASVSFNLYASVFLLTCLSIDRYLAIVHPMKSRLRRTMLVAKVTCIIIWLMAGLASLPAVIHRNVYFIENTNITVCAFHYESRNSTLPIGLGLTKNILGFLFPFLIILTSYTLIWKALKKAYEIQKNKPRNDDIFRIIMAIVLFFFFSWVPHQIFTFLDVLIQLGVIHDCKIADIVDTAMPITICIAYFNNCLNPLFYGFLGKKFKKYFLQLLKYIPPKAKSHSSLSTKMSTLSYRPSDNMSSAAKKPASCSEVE

What is called Kd is the constant that tells how readily two partners part at equilibrium. A lower Kd goes with a tighter complex. With [125I]-Angiotensin II (peptide), the Kd in assay [1] is 0.0432 µM; in assay [2], 0.0364 µM.
